Results: patent US20090214495A1 (published 2009)

Target: T1, VEGFR-3 expressed in primary human osteoblasts (human, UniProt P35916 25-1363)
T1 construct: whole, on cells; Endogenous receptor of the cells; also called vascular endothelial growth factor receptor-3
Experiment: receptor auto-phosphorylation in primary human osteoblasts treated with 25 ng/ml VEGF-D
Protocol: Moreover osteoblasts were treated with VEGF-D and the whole cell lisates were immunoprecipitated with an antibody recognizing VEGFR-3 C-terminus (Santa Cruz Biotechnology) and immunoblotted with anti-phosphotyrosine antibodies (Santa Cruz Biotechnology).
Cells were stimulated for 30 min with 25 ng/ml VEGF-D at 37° C., washed with ice-cold PBS containing 0.1 mM Na₃VO₄, and lysed in 1 ml of lysis buffer (50 mM Hepes, pH 7.4, 150 mM NaCl, 1% Triton-X 100, 1.5 mM MgCl₂, 1 mM EGTA, 10 mM NaH₂PO₄, 100 mM NaF, 10 mM DTT, 1 mM Na₃VO₄, protease inhibitors, Sigma Chemical). Cells lysates were incubated on ice for 10 min, centrifuged at 10,000×g for 15 min, and the supernatants were incubated with anti-VEGFR-3 antibodies.

T1 sequence (P35916 25-1363): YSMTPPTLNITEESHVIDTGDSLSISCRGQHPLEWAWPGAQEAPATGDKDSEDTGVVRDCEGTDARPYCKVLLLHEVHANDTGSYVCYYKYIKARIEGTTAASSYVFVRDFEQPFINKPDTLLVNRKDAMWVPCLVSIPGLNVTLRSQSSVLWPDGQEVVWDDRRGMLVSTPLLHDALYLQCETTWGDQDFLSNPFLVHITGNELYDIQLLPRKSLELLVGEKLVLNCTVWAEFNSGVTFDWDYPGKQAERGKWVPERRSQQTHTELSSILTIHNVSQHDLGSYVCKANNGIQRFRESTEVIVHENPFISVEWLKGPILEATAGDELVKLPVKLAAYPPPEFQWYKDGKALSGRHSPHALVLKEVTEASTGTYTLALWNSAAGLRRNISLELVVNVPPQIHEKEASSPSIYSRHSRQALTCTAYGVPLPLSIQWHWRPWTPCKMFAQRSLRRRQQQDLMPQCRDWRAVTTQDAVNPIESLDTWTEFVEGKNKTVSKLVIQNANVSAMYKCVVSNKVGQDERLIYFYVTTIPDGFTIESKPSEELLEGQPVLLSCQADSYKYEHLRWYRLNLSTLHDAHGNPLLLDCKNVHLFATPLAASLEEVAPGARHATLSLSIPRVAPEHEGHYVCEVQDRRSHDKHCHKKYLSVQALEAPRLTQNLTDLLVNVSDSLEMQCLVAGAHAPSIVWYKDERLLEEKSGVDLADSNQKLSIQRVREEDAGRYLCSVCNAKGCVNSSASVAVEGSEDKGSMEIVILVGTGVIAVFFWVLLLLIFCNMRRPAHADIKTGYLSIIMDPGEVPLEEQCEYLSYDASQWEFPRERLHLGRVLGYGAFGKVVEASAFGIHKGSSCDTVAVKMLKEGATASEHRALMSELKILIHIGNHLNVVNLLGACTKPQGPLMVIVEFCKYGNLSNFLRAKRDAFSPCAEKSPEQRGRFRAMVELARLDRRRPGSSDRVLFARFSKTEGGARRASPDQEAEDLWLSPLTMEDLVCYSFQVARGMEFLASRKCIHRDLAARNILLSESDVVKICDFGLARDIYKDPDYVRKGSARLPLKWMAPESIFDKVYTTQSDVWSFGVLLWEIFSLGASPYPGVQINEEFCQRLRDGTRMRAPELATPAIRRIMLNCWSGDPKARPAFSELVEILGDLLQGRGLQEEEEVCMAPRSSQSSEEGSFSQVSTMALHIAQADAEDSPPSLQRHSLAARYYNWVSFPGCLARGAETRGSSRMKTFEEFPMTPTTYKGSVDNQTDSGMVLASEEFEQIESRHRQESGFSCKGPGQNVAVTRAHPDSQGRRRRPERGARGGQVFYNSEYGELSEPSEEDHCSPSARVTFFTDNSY

B1: recombinant human VEGF-D fragment (amino acids 90 to 203), non covalent dimer, expressed in E. coli (ligand, UniProt O43915 90-203, looked up)
chain: AATFYDIETLKVIDEEWQRTQCSPRETCVEVASELGKSTNTFFKPPCVNVFRCGGCCNEESLICMNTSTSYISKQLFEISVPLTSVPELVPVKVANHTGCKCLPTAPRHPYSII
notes: range 90-203; this protein was used for the osteoblast experiments; also called recombinant VEGF-D; VEGF-D fragment comprising aa 93-203; not shown: tag from vector pET-22b used for Ni2+ IMAC / His-TRAP purification
binding result: binds
